Data: the nanobody polyreactivity screen of Harvey et al. (2022)

Test: yeast display, Sf9 membrane polyspecificity reagent, FACS + sequencing; frameworks hold sequencing errors
Method in brief: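 Polyreactivity labels are assigned by the sorting gate from which each nanobody was recovered. The gates were low and high (top ~1%), set on anti-HA fluorescence for expression and streptavidin fluorescence for reagent binding. Before sorting, galactose-induced (36–48 hours) yeast display cells were stained for 1 hour at 4 °C with 10% biotinylated, detergent-solubilized Sf9 membrane reagent.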

| Sequence | polyreactivity (PSR sort gate) |
| --- | --- |
| QVQLVQSGGGLVQAGGSLRLSCAASGGIFRTNPMGWYRQAPGQERALVATISRRGGSTYYADSVKGRFTISRDNAKNTVYFQMNSLKPEDTAVYYCAVEWYYTSNHIRFYRDNYWGQGTQVTVSS | high polyreactivity |
| QVQLVESGGGLVQAGGSLRLSCAASGSTFYVNAMGWYRPAPGKERELVAAITKSGGNTYYADSVKGRFTISRDNAKNTVYLQMNSLKPEDTAVYYCAAYKRYSSLTGYESWGQGTQVTVSS | high polyreactivity |
| QVQLVESGGGLVQAGGSLRLSCAASGRVRYAIGWYRQAPGKESELVASITRRAGNTYYADSVKGRFTISRDNAKNTVYLQMNSLKPEDTAVYYCAAADVGAYRGNYWGQGTLVTVSS | high polyreactivity |
| QVQLEESGGGLVQAGGSLRLSCAASGSTFDYYARGWYRPAPGKERELVAVISSGGSTYYADSVKGRFTISRDNAKNTVYLQMNSLKPEDTAVYYCAAETYYYVLPHWYKYKYGYWGQGTQVTVSS | low polyreactivity |
| QVQLVESGGGLVQAGGSLRLSCAASGSIFQWYAMGWYRQAPGQERELFAAITWSGDTTYYADSVKGRFTISRDNAKNTVYLQMNRLKPEDTAVYYCAADTQDRTYYGWRQVGGYDYWGQGTQVTVSS | low polyreactivity |
| QVQLEESGGGLVQAGGSLRLSCAASGSIFPRFYAIGWYRQAPGKERELVAAISWRDGSTFYADSVKGRFTISRDNAKNTVYLQMNSLKPEDTGVYYCAAATYRYGYGYWGQGTQVTVSS | high polyreactivity |
| QVQLVESGGRLVQAGGSLRLSCAASGFIISFNAMGWYRQATGKERELVATISGGGGSTYYADSVKGRFTISRDKAKNTVYLQMKSLKPEDTAVYYCAKSYRYRGDYWGQGTQVTVSS | high polyreactivity |
| QVQLVESGGGLVQAGGSLRLSCAASGSIFSSNAMGWYRQAPGKERELVAAITSGGSTTYADSVKGRFPISRDNAKNTVYFQMNSLKPEDTAVYYCAADPVYRYYHGWTYLDYDYWGQGTQVTVSS | low polyreactivity |
| QVQLVESGGGLDQAGGSLRLSCAASGSIFGVNDMVWNRQAPGKERELVAAISGGGSTYYADSVKGRFTISRDNAKNTVYLQMNSLKPEDTAVYYCARRRTKSYTRKYDYWGQGTQVTVSS | low polyreactivity |
| QVHLVESGGGLVQAGGSLRLSCAASGSIFYWYAMGWYRQAPGKERELVAAITWSGGSTYYADSVKGRFTISRDNAKNTVDLQMNSLKPEDTAVYYCAALVYGYPRWSGKYDYWGQVTQVTVSS | high polyreactivity |
| QVQHVESGGGLVQAGGSLRLSCAASGRIFVPYVMGWYRQAPGKERELVASISDSDTSTYDADSVKGRFTISRDNAKTTVYLQMNSLKPEDTAVYYCNVDYWGKGTQVTVSS | low polyreactivity |
| QDKLVDSGGGLVQAGGSLLLSCAASGFIFLNNAMGWYRQAPGKQRELVAAITWSGGSTYYADSVKGRFTISRDNAKNTVYLQMNSLKPVDTAVYYCAADGWLYYGVGFYSSRRDYYWGQGTQVTVSS | low polyreactivity |
| QVQLVESGGGLVQAGGSLRLSCAASGFTFRYYTMGWYRQAPGKERELVASISRRGGSTYYADSVKGRFTISRDNAKNTVFLQMNSLKPEDTAVYYCNTLSQVFASRAPKFDYWGQGTQVTVSS | high polyreactivity |
| QVQHVDSGGGLFQAAGSLRLSCAASGGTFSFYTMGWSRQGPGKERELVAAIDSTGRTNYADSVKGRFTISRDKAKNTVYLQMNSLKPEDSAVYYCSAGPPRADYDYWGQGTQVTVSS | low polyreactivity |
| QVQLVESGGGLVQAGGSLRLSCAASGRIFRAYAMGWYRQAPGKERELVAAITSGVSTNYADSVKGRFTISRDNAKNTVYLQMNSLKAEDTAVYYCAADIYVIYEYWGQGTQVTVSS | low polyreactivity |
| QVQLVESGGGLVQAGGSLRLSCAASGFTFTRYAMGWSRQAPGKERELVAAMSRGGTTYADSVKGRFTISRDNAKNTVYLQMNSLKPDDTAVYYCNRLRYCYPQEFGYWGLGTQVTVSS | high polyreactivity |
| QVQLVESGGGLVQAGGSLRLSCASSGSTFYFNAMGWYRQAPGKERELVAAITSSGGTTYYADSVKGRFTISRDNAKNTVYLQMNSLKPEDTAVFYCADWFSAYYSLYRHRGYWGHGTQVTVSS | low polyreactivity |
| QVQLVESAGGLVQAGGSLSLSCAASGYTYWYAMGWYRQAPGKERELVAAIDSGVTRTYYADSVKGRFTISRDNAKNTVYLQMNSLKPEDTAVYYCAAGLSTDYGYWGQGTQVTVSS | low polyreactivity |
| QVQLVESGGGLVQAGGSLRLSCAASGYIFDRNAMGWYRQAPGKERELLAAITKRGGITYYADSVKGRFTISRDNAKNTVYLQMNSLKPEDTAVYYCAADIGYYVYNDYDYWGQGTQVTVSS | low polyreactivity |
| QVQLVESGGGLVQAGGSLRLSCAASGLTFLYYAMGWYRQAPGKERELVAAISRSGGSTYYADSVKGRFTISRDNAKNTVYLQMNSLKPEDTAVYYCAAGRRGGKQGGTRGGDYWGQGTQVTVSS | high polyreactivity |
| QVQLVESGGGLVQAGGSLRLSCAASGFTFRFNAMGWYIQAPGKERELVAAIRQSGGSTYYADSVKGRFTISRDNAKNTVYLQMNSLKPEDTAVYYCATRYFTGYGLRPQFYYWGQGTQVTVSS | high polyreactivity |
| QVQLVESGGGLVQAGGSLRLSCAASGRIIGVNAMGWYRQAPGKERELVAAISWSGGSTYYADSVKGRFTISRDNAKNTVYLQMNSLKPEDTAVYYCATTYFYARRPRGDYWGQGTQVTVSS | high polyreactivity |

| Sequence | polyreactivity (PSR sort gate) |
| --- | --- |
| QVQLVESGGGLVQAGGSLRLSCAASGSIFEYYAMGWYRQAPGKEREFVAAISDNGDSTYYADSVKGRFTISRDNAKNTVYLQMNSLKPEDTAVYYCAVRKAYQYGFYYWGQGTQLTVSS | low polyreactivity |
| QVQLVESGRGLVQAGGILRLSCAASGFIFYYYAMVWYRQAPGKERELVAAISQRGGRTYYAESVKGSFTISRDYAKNTVYLQMNSLKTEDTAVYYCAARPAYRSSYYWGQGTQVTVSS | high polyreactivity |
| QVQLVESGGGLVQAGGSLRLSCAASGYAMGWYRQAPGKERELVAAITRRGGSTYYADSVKGRFTISRDNAKNTVYLQMNSLKPEDTAVYYCAADNPSYNLWYGYWGQGTQVTVSS | low polyreactivity |
| QVQLVESGGGLVQARGSLRLSSAASGYIFYHYAMGWYRQSPGKERELVAAISSGGGSTYYADSVKGRFTISRDYAKNTVSLQINSLKPEDTAVYYCNAVRYYTKYDYWGQGTQVTVSS | high polyreactivity |
| QVQHVESGGGLVQAGGSLRLSCAASGRIFWYYAMGWYRQAPGKERELVAASTRGGITTYADSVKGRYTISRDNAKNTVYLQMNSLKPEDTAVYYCNAVRWYGRMDYWGQGTQVTVSS | low polyreactivity |
| QVQLVESGGGLVQAGGSLRLSCAASGSIFQYTMGWYRQAPGKERELVAAITRSGSSTYYADSVKGRFTISRDNAKNTVYLQMNSLKPEDTAVYSCAHTIRRVLGYGSWGQGTQVTVSS | high polyreactivity |
| QDQLVESGGGLVQAGGSLRISCAASGSTFFGYAMGWYRQAPGKERELVATISSGDSTNYADSVKGRFTFSRDNAKNTVYLQMNSLKPEDTAVFYCAAQGGDGVLALYYYWGQGTQVTVSS | low polyreactivity |
| QVQLVESGGGLVQAGGSLRLSCAASGFTFGAYAMGWSRQAPGKERELVASISWSGGSTYYADSVKGRFTISRDNAKNTVYLQMNSLKPEDTAVYDCNKDFVYPDDDGLFDYWGQGTQVTVSS | low polyreactivity |
| QVQLVESGGGLVQAGGSLRLSCAASGSTFCFYAMGWYRQSPGKERELVATITIGGRTYADSVKGRFTISRDNAKNTLYLQMNSLKPEDTAVYYCNARNHVQVLFRRDYWVQGTQVTVSS | low polyreactivity |
| QVQLVESGGGLVQAGGSLRLSCAASGSIFHRYAMGWYRQAPGKERELVAAISWRGSSTYYADSVKGRFTISRDNAKNTVYLQMNSLKPEDTAVYYCNARGGSRRRYDYWGQGTQVTVSS | high polyreactivity |
| QVQLVESGGGLVQAGGSLRLSCAASGFIFIKYAMGWYRQAPGKERELVAGITRSGSSTYYADSVKGRFTISRDNAKNTVYLQMNSLKPEDTAVYYCAAASGSSVGRYGYWGQGTQVTVSS | high polyreactivity |
| QVQLVESGGGLVQAGGSLRLTCAASGRIFKQYAMGWYRQAPGKEMELVATISSGGDTNYADSVKGRFTISRDNAKNTVYLQMNSLKPEDTAVYFCAAGDIYYAEYEYWGKGTQVTVSS | low polyreactivity |
| QVQLVESGGGLVQAGGSLRLSCAASGRTLAFNAMGWYRQAPGKERELVAVIRNGTSTNYADSVKGRFTISRDNAKNTVYLQMNSLKPEDTAVYYCNVPYYLPSYLSGYDYWGQGTQVTVSS | low polyreactivity |
| QVQLVESGGGLVQAGGSLRLSCAASGSTSWLNAMGWYRQATGKERELVAAISVNTGSTYYADSVKGRFTISRDNAKNTVYLQMNSLKPEDTAVYYCAARGRGHGTTPNDYWGQGTQVTVSS | high polyreactivity |
| QVQLVESGGGLVQAGGSLRLSCAASGLTFVYYAMGWYRQAPGKERELVAAISSGGRTYYADSVKGRFTISRDNAKNTVYLQMNSLKPEDTGVYYCAAYGGTHYTYRYDYWGQGTQVNVSS | high polyreactivity |
| QVQLVESGGGLVQAGGSLRLSCAASGRIFNYYAMRWYRQAPGKETELVAAITSSGGSTYYADSVKGRFTISRDNAKNTVYLQMNSLKPEDTAVYYCAAVSTATIRGGYWGQGTQVTVSS | high polyreactivity |
| QVQLVDSGGGLVQAGGSLSLSCAASGSTYAYYAMGWYRQAPGKVRELVAGITWTGGSTYYADSVKGRFTISRDNAKNTVYLQMNSLKPEDTAVYYCAVTYPYGYEYDHWGQGTQVTVSS | low polyreactivity |
| QDQLVESGGGLVQAGGSLRLSCAASGRTFIRNAMGWYRQAPGKERELVAAISRSGGRTYYADSVKGRFTISRDNAKNTVYLQMNSLKPEDTAVYYCAAGSYQRYAFDYWGQGTQVTVSS | high polyreactivity |
| QVQPQESGGGLVQAGGSLRLSCAASGTIFAFQTMGWYRQAPGKERELVASITYGSSTNYADSVKGRFTFSRDNANITVYVQMNSLKPEDTAVYYCAVPQAQYYYYYWGQGTQVTVSS | high polyreactivity |
| QVQLVESGGGLVQAGGSLRLSCAASGITFSYYAMGWYRQAPGKERELVAAITGGSTYYADSVKGRFTISRDNAKNTVYLQMNSLKPEDTAVYYCNADSLFEYLDYDYWGQGTQVTVSS | low polyreactivity |
| QVQLVESCGGLVQAGGRLRLSCAASGRIFYSYAMGWSRQAPGKERELVAAITVSGGSTFYADSVKGRFTISRDNAKNTVYLQMNSLKPEDTAVYYCNAPKRYSTIGYDYWGQGSQVTVSS | high polyreactivity |
